# Publication PMC9648850
# System: RtrC (Caulobacter crescentus (NA1000?))
# Assay: EMSA
# Details: 200 mM NaCl, 50 ng/ul poly(dI-dC), EMSA: 32.5 mM Tris pH 8 (at 4 C), 200 mM NaCl (chases: 30 mM Tris, 150 mM NaCl), 1 mM EDTA, 30% glycerol, 1 mM DTT, 10 ug/ml BSA, 20 C …
substance,measurement,value
"hfiA promoter probe, labeled",Kd,0.045 µM
